As a reminder, the Kd is the concentration at which binding is half-saturated.

To fix the notation:
B1: S100A5 (natural protein)
chain: METPLEKALTTMVTTFHKYSGREGSKLTLSRKELKELIKKELCLGEMKESSIDDLMKSLDKNSDQEIDFKEYSVFLTMLCMAYNDFFLEDNK

Assay [1] addresses B1. The assay is described as follows: FP; competition against fIF.
Assay [2] addresses B1. The assay is described as follows: FP; competition against fWL.
Assay [3] deals with fIF, fluorescently labelled H14 foldamer IF (β-peptidic hexamer: β3-amino acids with proteinogenic side chains (I, F) in positions 2 and 5, ACHC (trans-2-aminocyclohexancarboxylic acid) residues; 5(6)-carboxyfluorescein on the ε-amino group of …). Briefly: FP.
Assay [4] has as its target fWL, fluorescently labelled H14 foldamer WL (β-peptidic hexamer: β3-amino acids with proteinogenic side chains (W, L) in positions 2 and 5, ACHC (trans-2-aminocyclohexancarboxylic acid) residues; 5(6)-carboxyfluorescein on the ε-amino group of …). Briefly: FP.

For TRTKIDWNKILS [TRTK12 peptide], the equilibrium dissociation constant (Kd) was 2.4 µM with S100A5 [1] and 4.9 µM with S100A5 [2].

Consider B1, for which the figures for the Kd in assay [3] and in assay [4] were 32 µM and 7.9 µM, respectively.

Values taken from publication PMC8991199 (2022).
